Source: US20250277208A1, “Method of Peptide Library Construction and Peptides Thereof” (Alcamena Stem Cell Therapeutics, LLC, priority 2024, published 2025)
Square brackets hold non-standard residues; d marks the D form. Ends that are not written are not given here. Phe(4-F) = N[C@@H](Cc1ccc(F)cc1)C(=O)O; Gla = N[C@@H](CC(C(=O)O)C(=O)O)C(=O)O; Cha = N[C@@H](CC1CCCCC1)C(=O)O; hLeu = CC(C)CC[C@H](N)C(=O)O

B1: Peptide 27 (2) (peptide)
peptide: Ac-SVRDLLRRMKVCVG-NH2
B2: Peptide 71 (peptide)
peptide: Ac-TIRDLLRRMCHIVG-NH2
B3: Peptide 45 (2) (peptide)
peptide: Ac-FAFRDLLRRMCHIVG-NH2
B4: Peptide 72 (peptide)
peptide: Ac-FSFRDLLRRMCHIVG-NH2
B5: Peptide 38 (2) (peptide)
peptide: Ac-ATIRDLLRRMCHIVG-NH2
B6: Peptide 82 (peptide)
peptide: Ac-ATIRDLIRMMKVCVG-NH2
B7: Peptide 9 (peptide)
peptide: SVRDLLRRMCHIVG
notes: linear, N and C termini not protected; also called 9 (parent); parent peptide 9
B8: Peptide 27 (peptide)
peptide: SVRDLLRRMKVCVG
notes: termini not protected
B9: Peptide 33 (peptide)
peptide: SVRDLIRMMCHIVG
notes: termini not protected; also called variant 33
B10: Peptide 45 (peptide)
peptide: FAFRDLLRRMCHIVG
notes: termini not protected
B11: Peptide 24 (peptide)
peptide: ETIRDLLRRMCHIVG
notes: termini not protected
B12: Peptide 38 (peptide)
peptide: ATIRDLLRRMCHIVG
notes: termini not protected
B13: Peptide 28 (peptide)
peptide: ACMDLLRRMCHIVG
notes: termini not protected
B14: Peptide 37 (peptide)
peptide: SVRDLPTQMCHIVG
notes: termini not protected
B15: Peptide 48 (peptide)
peptide: SVRDWTPRMCHIVG
notes: termini not protected
B16: Peptide 35 (peptide)
peptide: CVYRDLLRRMCHIVG
notes: termini not protected
B17: Peptide 39 (peptide)
peptide: SVRDANYRMCHIVG
notes: termini not protected
B18: Peptide 43 (peptide)
peptide: SVRDLLSHNCHIVG
notes: termini not protected
B19: Peptide 44 (peptide)
peptide: H-SVRDLQKQMCHIVG-OH
notes: Printed SVRDLQKOMCHIVG (the letter O is as printed, perhaps a misprint); termini not protected
B20: Peptide 47 (peptide)
peptide: SVRDLQSTMCHIVG
notes: termini not protected
B21: Peptide 49 (peptide)
peptide: SVRDLLRRMCVFWG
notes: termini not protected
B22: Peptide 65 (peptide)
peptide: Ac-SVRDLLRRMKHIVG-NH2
B23: Peptide 66 (peptide)
peptide: Ac-SVRDLLRRMCVIVG-NH2
B24: Peptide 67 (peptide)
peptide: Ac-SVRDLLRRMCHCVG-NH2
modifications: cysteine pairing not given here
B25: Peptide 68 (peptide)
peptide: Ac-SVRDLIRRMCHIVG-NH2
B26: Peptide 69 (peptide)
peptide: Ac-SVRDLLRMMCHIVG-NH2
B27: Peptide 73 (peptide)
peptide: Ac-SVRDLLRRMKVIVG-NH2
B28: Peptide 84 (peptide)
peptide: Ac-TIRDLLRMMKVIVG-NH2
B29: Peptide 80 (peptide)
peptide: Ac-FSFRDLLRMMCHIVG-NH2
B30: Peptide 54 (peptide)
peptide: Ac-ASVRDLLRRMCHIVG-NH2
B31: Peptide 58 (peptide)
peptide: Ac-FAFRDLIRMMCHIVG-NH2
notes: also called variant 58
B32: Peptide 61 (peptide)
peptide: Ac-FSVRDLLRRMCHIVG-NH2
B33: Peptide 75 (peptide)
peptide: Ac-FAFRDLLRMMCHIVG-NH2
B34: Peptide 76 (peptide)
peptide: Ac-FAFRDLIRMMKVIVG-NH2
B35: Peptide 77 (peptide)
peptide: Ac-FAFRDLIRMMKHIVG-NH2
B36: Peptide 78 (peptide)
peptide: Ac-FAFRDLIRMMCVIVG-NH2
B37: Peptide 81 (peptide)
peptide: Ac-FSFRDLLRMMKVIVG-NH2
B38: Peptide 87 (peptide)
peptide: Ac-FSVRDLIRMMKVCVG-NH2
B39: Peptide 93 (peptide)
peptide: Ac-FSFRDLIRMMKVCVG-NH2
B40: Peptide 51 (peptide)
peptide: Ac-ATIRDLIRMMCHIVG-NH2
notes: also called peptide variant 51
B41: Peptide 64 (peptide)
peptide: Ac-SVRDLIRMMKVCVG-NH2
B42: Peptide 53 (peptide)
peptide: Ac-ATIRDLLRRMKVCVG-NH2
B43: Control peptide CA11 (peptide)
peptide: NQQLIEEIIQILHKIFEIL
notes: published peptide (Kobayashi et al. 2011) synthesized by the inventors; whether its termini were protected is not clear
B44: Control peptide PN-1974 (peptide)
peptide: H-FD[hLeu]DIHLLFLPTEWEKDKNEE-OH
SMILES: CC[C@H](C)[C@H](NC(=O)[C@H](CC(=O)O)NC(=O)[C@H](CCC(C)C)NC(=O)[C@H](CC(=O)O)NC(=O)[C@@H](N)Cc1ccccc1)C(=O)N[C@@H](Cc1c[nH]cn1)C(=O)N[C@@H](CC(C)C)C(=O)N[C@@H](CC(C)C)C(=O)N[C@@H](Cc1ccccc1)C(=O)N[C@@H](CC(C)C)C(=O)N1CCC[C@H]1C(=O)N[C@H](C(=O)N[C@@H](CCC(=O)O)C(=O)N[C@@H](Cc1c[nH]c2ccccc12)C(=O)N[C@@H](CCC(=O)O)C(=O)N[C@@H](CCCCN)C(=O)N[C@@H](CC(=O)O)C(=O)N[C@@H](CCCCN)C(=O)N[C@@H](CC(N)=O)C(=O)N[C@@H](CCC(=O)O)C(=O)N[C@@H](CCC(=O)O)C(=O)O)[C@@H](C)O
notes: linear, termini not protected
B45: Peptide 52 (peptide)
peptide: Ac-ATIRDLLSHNCHIVG-NH2
B46: Peptide 59 (peptide)
peptide: Ac-FAFRDLLSHNCHIVG-NH2
B47: Peptide 60 (peptide)
peptide: Ac-FAFRDLLRRMKVCVG-NH2
B48: Control peptide RA07 (peptide)
peptide: INTLLSEINSILLDIISLL
notes: as for B43
B49: Control peptide PN-2519 (peptide)
peptide: FD[Cha]DIHLL[Phe(4-F)]LPTEWEK[Gla]KNEE
notes: Printed FD(Cha)DIHLL(4F)LPTEWEK(Cla)KNEE; tested in a linear form
B50: Control peptide C1 (peptide)
peptide: SVKDLQHGLRHVVG
notes: homologous to peptide 9 without its mutations (two unmutated fragments of IL-6R); whether its termini were protected is not clear

Molecular target: T1, Biotinylated recombinant human IL-6 (human, UniProt P05231 30-212, biotinylated (sites not given))
Assay: cell-based or functional assay
Settings: not given

Molecule	IC50, inhibition of IL-6-induced cell signaling (IL-6 Bioassay, luciferase reporter cells)
B1	580 nM
B2	3400 nM
B3	72 nM
B4	23.5 nM
B5	142 nM
B6	183 nM

Molecular target: IL-6 signaling (Homo sapiens, UniProt P05231)
Assay: IL-6 Bioassay (Promega), luciferase reporter cells, inhibition of IL-6-induced cell signaling
Type: cell-based
Settings: peptides incubated with IL-6 for 10 min, IL-6 0.5 nM, cells 6 hours
Description: To verify the ability of the peptides of the invention to inhibit IL-6-signaling, they were tested with the IL-6 Bioassay Kit (Promega). This kit includes human cells engineered to express the IL-6 receptor and a luciferase reporter driven by a response element. When IL-6 binds, the IL-6R transduces intracellular signals resulting in luminescence (fluorescence). Inhibition of IL-6 interaction with the receptor leads to the decrease of the luciferase expression and lower fluorescence.
The selected peptides were incubated with IL-6 for 10 min before being added to cell culture medium. […] Peptides 27 (2), 38 (2) and 45 (2) were also tested.
The ability of peptides to inhibit IL-6 signaling pathway was tested with the IL-6 Bioassay from Promega (cat #JA2501). The bioluminescent signal is detected and quantified using Bio-Glo™ Luciferase Assay System. Different concentrations of the test peptides were mixed with IL-6 (0.5 nM) and added to the IL-6 Bioassay Cells according to the manufacturer's instructions. Cells were incubated for 6 hours in a humidified incubator at 37° C. and 5% CO2 concentration. Following incubation, 75 microliters of the Bio-Glo™ Reagent was added to the cell culture and the luminescence was measured with a Biotek Synergy HTX plate reader. Data was analyzed according to manufacturer's recommendations.

IL-6 signaling, sequence (P05231 30-212): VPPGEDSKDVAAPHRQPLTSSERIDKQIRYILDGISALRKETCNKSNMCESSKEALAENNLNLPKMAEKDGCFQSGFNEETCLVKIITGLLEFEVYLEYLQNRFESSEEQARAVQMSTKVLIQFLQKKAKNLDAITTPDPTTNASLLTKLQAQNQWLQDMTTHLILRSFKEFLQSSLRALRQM

Molecule	IC50
Ac-SFRDLIRMMKVCVG-NH2 [Peptide 90, SFRDLIRMMKVCVG]	1200 nM

Molecular target: T1, Biotinylated recombinant human IL-6
Assay: SPR (Biacore), IL-6 on chip
Settings: not given

Molecule	Kd	binding result
B7	2580 nM	
B8	58 nM	
B9	545 nM	
B10	92 nM	
B11	119 nM	
B12	54 nM	
B13	2730 nM	
B14	649 nM	
B15	2820 nM	
B16		no binding (tested: 20 µM highest peptide concentration)
B17		no binding (tested: 20 µM highest peptide concentration)
B18		no binding (tested: 20 µM highest peptide concentration)
B19		no binding (tested: 20 µM highest peptide concentration)
B20		no binding (tested: 20 µM highest peptide concentration)
B21		no binding (tested: 20 µM highest peptide concentration)

Molecular target: T1, Biotinylated recombinant human IL-6
Assay: SPR (Biacore), IL-6 on chip
Settings: not given
Remark: another data set of the same source

Molecule	Kd	binding result
B22	150 nM	
B23	283 nM	
B24		no binding (tested: 20 µM highest peptide concentration)
B25	724 nM	
B26	172 nM	
B2	49 nM	
B27	1130 nM	
B28	565 nM	
B29	249 nM	
B3	147 nM	
B30	422 nM	
B31	71 nM	
B32	144 nM	
B33	132 nM	
B34	1300 nM	
B35	405 nM	

Molecule	Kd	binding result
B36	1490 nM	
B37	1270 nM	
B38	47 nM	
B39	265 nM	
B5	115 nM	
B40	128 nM	
B41	1390 nM	
B42	436 nM	
B43	50800 nM	
B44	61 nM	
B45		no binding (tested: 20 µM highest peptide concentration)
B46		no binding (tested: 20 µM highest peptide concentration)
B47		no binding (tested: 20 µM highest peptide concentration)
B48		no binding (tested: 20 µM highest peptide concentration)
B49		no binding (tested: 20 µM highest peptide concentration)
B50		no binding (tested: 20 µM highest peptide concentration)
